{
  "source": "patent US20150266962A1",
  "key": {"[1]": {"target": "human IL-13Rα2 on the surface of human tumour cell lines (human) (UniProt Q14627)", "sequence (Q14627 27-380)": "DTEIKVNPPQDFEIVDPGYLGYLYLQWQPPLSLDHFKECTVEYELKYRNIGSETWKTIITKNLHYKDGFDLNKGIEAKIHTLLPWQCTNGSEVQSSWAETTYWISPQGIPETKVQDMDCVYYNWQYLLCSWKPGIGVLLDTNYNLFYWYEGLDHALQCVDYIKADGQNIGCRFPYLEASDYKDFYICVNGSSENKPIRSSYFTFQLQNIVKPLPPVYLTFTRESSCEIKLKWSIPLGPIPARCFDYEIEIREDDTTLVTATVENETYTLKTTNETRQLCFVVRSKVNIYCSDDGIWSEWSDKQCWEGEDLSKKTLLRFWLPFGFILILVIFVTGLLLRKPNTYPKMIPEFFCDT", "assay": "cell-based or functional assay"}, "[2]": {"target": "human IL-13Rα2 on the surface of human tumour cell lines (human) (UniProt Q14627)", "assay": "FACS, 10 µg/mL, A498 (renal) cells"}, "[3]": {"target": "human IL-13Rα2 on the surface of human tumour cell lines (human) (UniProt Q14627)", "assay": "FACS, 10 µg/mL, A375 (melanoma) cells"}, "[4]": {"target": "human IL-13Rα2 on the surface of human tumour cell lines (human) (UniProt Q14627)", "assay": "FACS, 10 µg/mL, SW626 (ovarian) cells"}, "[5]": {"target": "human IL-13Rα2 on the surface of human tumour cell lines (human) (UniProt Q14627)", "assay": "FACS, 10 µg/mL, PC3MM2 (prostate) cells"}, "[6]": {"target": "human IL-13Rα2 on the surface of human tumour cell lines (human) (UniProt Q14627)", "assay": "FACS, 10 µg/mL, Hs766T (pancreatic) cells"}, "[7]": {"target": "human IL-13Rα2 on the surface of human tumour cell lines (human) (UniProt Q14627)", "assay": "FACS, 10 µg/mL, U87MG (glioblastoma) cells"}, "[8]": {"target": "human IL-13Rα2 on the surface of human tumour cell lines (human) (UniProt Q14627)", "assay": "FACS, 10 µg/mL, H460 (lung, cisplatin resistant) cells"}, "[9]": {"target": "human IL-13Rα2 on the surface of human tumour cell lines (human) (UniProt Q14627)", "assay": "FACS on A375 cells"}, "[10]": {"target": "human IL-13Rα2 on the surface of human tumour cell lines (human) (UniProt Q14627)", "assay": "cell-based ELISA on A375 cells (given as ED50)"}, "[11]": {"target": "human IL-13Rα2 on the surface of human tumour cell lines (human) (UniProt Q14627)", "assay": "competition ELISA on A375 cells, competitor biotinylated ch07"}},
  "data": [
    {"binder": "murine anti-IL-13Rα2 antibody mu07 (antibody, mouse IgG1, V domains shown) VH: QVQLKESGPGLVAPSQSLSINCTVSGFSLTKYGVHWIRQSPGKGLEWLGVKWAGGSTDYNSALMSRLTISKDNNKSQVFLKMNSLQSDDSAMYYCARDHRDAMDYWGQGTSVTVSS VL: QVVLTQSPAIMSASPGERVTMTCTASLSVSSTYLHWYHQKPGSSPKLWIYSTSNLASGVPARFSGSGSGTSYSLTISSMEAEDAATYYCHQYHRSPLTFGSGTKLELK", "values": [
      {"measurement": "% internalization, 15 min, A375", "setting": "[1]", "result": 63.1, "unit": "%"},
      {"measurement": "% internalization, 15 min, H460R", "setting": "[1]", "result": 74.4, "unit": "%"},
      {"measurement": "% internalization, 15 min, Hs766T", "setting": "[1]", "result": 69.6, "unit": "%"},
      {"measurement": "% internalization, 15 min, PC3MM2", "setting": "[1]", "result": 88.6, "unit": "%"},
      {"measurement": "% internalization, 4 hours, A375", "setting": "[1]", "result": 38.1, "unit": "%"},
      {"measurement": "% internalization, 4 hours, H460R", "setting": "[1]", "result": 38.4, "unit": "%"},
      {"measurement": "% internalization, 4 hours, Hs766T", "setting": "[1]", "result": 69, "unit": "%"},
      {"measurement": "% internalization, 4 hours, PC3MM2", "setting": "[1]", "result": 50.3, "unit": "%"},
      {"measurement": "internalized after a 1 hour incubation with A375 cells at 37° C.", "setting": "[1]", "result": 38, "unit": "%"},
      {"measurement": "Mean Fluorescent Intensity", "setting": "[2]", "result": 13000},
      {"measurement": "Mean Fluorescent Intensity", "setting": "[3]", "result": 53000},
      {"measurement": "Mean Fluorescent Intensity", "setting": "[4]", "result": 9000},
      {"measurement": "Mean Fluorescent Intensity", "setting": "[5]", "result": 84000},
      {"measurement": "Mean Fluorescent Intensity", "setting": "[6]", "result": 13000},
      {"measurement": "Mean Fluorescent Intensity", "setting": "[7]", "result": 61000},
      {"measurement": "Mean Fluorescent Intensity", "setting": "[8]", "result": 28000}
    ]},
    {"binder": "murine anti-IL-13Rα2 antibody mu08 (antibody, mouse IgG1, V domains shown) VH: EVQLVESGGDLVRPGGSLQLSCAASGFTFSRNGMSWVRQTPDRRLEWVATVSSGGSYIYYADSVKGRFTISRDNARNTLYLQMSSLKSEDTAMYYCARQGTTALATRFFDVWGAGTTVTVSS VL: DIVMTQSHKFISTSVGDRVSITCKASQDVGTAVAWYQQIPGQSPKLLIYSASYRSTGIPDRFTGSGSGTDFSFIISSVQAEDLALYYCQHHYSAPWTFGGGTTLDIK", "values": [
      {"measurement": "% internalization, 15 min, A375", "setting": "[1]", "result": 68, "unit": "%"},
      {"measurement": "% internalization, 15 min, H460R", "setting": "[1]", "result": 55.9, "unit": "%"},
      {"measurement": "% internalization, 15 min, Hs766T", "setting": "[1]", "result": 64.1, "unit": "%"},
      {"measurement": "% internalization, 15 min, PC3MM2", "setting": "[1]", "result": 81.9, "unit": "%"},
      {"measurement": "% internalization, 4 hours, A375", "setting": "[1]", "result": 61.8, "unit": "%"},
      {"measurement": "% internalization, 4 hours, H460R", "setting": "[1]", "result": 47.4, "unit": "%"},
      {"measurement": "% internalization, 4 hours, Hs766T", "setting": "[1]", "result": 76.3, "unit": "%"},
      {"measurement": "% internalization, 4 hours, PC3MM2", "setting": "[1]", "result": 41.6, "unit": "%"},
      {"measurement": "internalized after a 1 hour incubation with A375 cells at 37° C.", "setting": "[1]", "result": 31, "unit": "%"},
      {"measurement": "Mean Fluorescent Intensity", "setting": "[2]", "result": 5000},
      {"measurement": "Mean Fluorescent Intensity", "setting": "[3]", "result": 46000},
      {"measurement": "Mean Fluorescent Intensity", "setting": "[4]", "result": 8000},
      {"measurement": "Mean Fluorescent Intensity", "setting": "[5]", "result": 72000},
      {"measurement": "Mean Fluorescent Intensity", "setting": "[6]", "result": 14000},
      {"measurement": "Mean Fluorescent Intensity", "setting": "[7]", "result": 62000},
      {"measurement": "Mean Fluorescent Intensity", "setting": "[8]", "result": 22000}
    ]},
    {"binder": "chimeric antibody ch08 (antibody, human IgG1, V domains shown) VH: EVQLVESGGDLVRPGGSLQLSCAASGFTFSRNGMSWVRQTPDRRLEWVATVSSGGSYIYYADSVKGRFTISRDNARNTLYLQMSSLKSEDTAMYYCARQGTTALATRFFDVWGAGTTVTVSS VL: DIVMTQSHKFISTSVGDRVSITCKASQDVGTAVAWYQQIPGQSPKLLIYSASYRSTGIPDRFTGSGSGTDFSFIISSVQAEDLALYYCQHHYSAPWTFGGGTTLDIK", "values": [
      {"measurement": "EC50", "setting": "[9]", "result": 5.64, "unit": "nM"}
    ]},
    {"binder": "humanized antibody hu08 v1.0 HC/v1.1 LC (antibody, IgG1, V domains shown) VH: EVQLVESGGGLVQPGGSLRLSCAASGFTFSRNGMSWVRQAPGKGLEWVATVSSGGSYIYYADSVKGRFTISRDNAKNSLYLQMNSLRAEDTAVYYCARQGTTALATRFFDVWGQGTLVTVSS VL: DIQMTQSPSSLSASVGDRVTITCKASQDVGTAVAWYQQIPGKAPKLLIYSASYRSTGVPDRFSGSGSGTDFSFIISSLQPEDFATYYCQHHYSAPWTFGGGTKVEIK", "values": [
      {"measurement": "EC50", "setting": "[9]", "result": 6.52, "unit": "nM"}
    ]},
    {"binder": "humanized antibody hu08 v1.1 HC/v1.0 LC (antibody, IgG1, V domains shown) VH: EVQLVESGGGLVQPGGSLRLSCAASGFTFSRNGMSWVRQTPDKRLEWVATVSSGGSYIYYADSVKGRFTISRDNAKNSLYLQMSSLRAEDTAVYYCARQGTTALATRFFDVWGQGTLVTVSS VL: DIQMTQSPSSLSASVGDRVTITCKASQDVGTAVAWYQQKPGKAPKLLIYSASYRSTGVPSRFSGSGSGTDFTLTISSLQPEDFATYYCQHHYSAPWTFGGGTKVEIK", "values": [
      {"measurement": "EC50", "setting": "[9]", "result": 4.15, "unit": "nM"}
    ]},
    {"binder": "humanized antibody hu08 v1.1 HC/v1.1 LC (antibody, IgG1, V domains shown) VH: EVQLVESGGGLVQPGGSLRLSCAASGFTFSRNGMSWVRQTPDKRLEWVATVSSGGSYIYYADSVKGRFTISRDNAKNSLYLQMSSLRAEDTAVYYCARQGTTALATRFFDVWGQGTLVTVSS VL: DIQMTQSPSSLSASVGDRVTITCKASQDVGTAVAWYQQIPGKAPKLLIYSASYRSTGVPDRFSGSGSGTDFSFIISSLQPEDFATYYCQHHYSAPWTFGGGTKVEIK", "values": [
      {"measurement": "EC50", "setting": "[9]", "result": 5.16, "unit": "nM"}
    ]},
    {"binder": "chimeric antibody ch07 (antibody, human IgG1, V domains shown) VH: QVQLKESGPGLVAPSQSLSINCTVSGFSLTKYGVHWIRQSPGKGLEWLGVKWAGGSTDYNSALMSRLTISKDNNKSQVFLKMNSLQSDDSAMYYCARDHRDAMDYWGQGTSVTVSS VL: QVVLTQSPAIMSASPGERVTMTCTASLSVSSTYLHWYHQKPGSSPKLWIYSTSNLASGVPARFSGSGSGTSYSLTISSMEAEDAATYYCHQYHRSPLTFGSGTKLELK", "values": [
      {"measurement": "EC50", "setting": "[10]", "result": 0.85, "unit": "nM"},
      {"measurement": "IC50", "setting": "[11]", "result": 17.3, "unit": "nM"}
    ]},
    {"binder": "hu07 heavy chain v1.5 paired with chimeric light chain (antibody, V domains shown) VH: EVQLVESGGGLVQPGGSLRLSCAASGFSLTKYGVHWVRQAPGKGLEWVGVKWAGGSTDYNSALMSRFTISKDNAKNSLYLQMNSLRAEDTAVYYCARDHRDAMDYWGQGTLVTVSS VL: QVVLTQSPAIMSASPGERVTMTCTASLSVSSTYLHWYHQKPGSSPKLWIYSTSNLASGVPARFSGSGSGTSYSLTISSMEAEDAATYYCHQYHRSPLTFGSGTKLELK", "values": [
      {"measurement": "EC50", "setting": "[10]", "result": 0.87, "unit": "nM"},
      {"measurement": "IC50", "setting": "[11]", "result": 7.67, "unit": "nM"}
    ]},
    {"binder": "hu07 heavy chain v1.5 / light chain v1.0 (antibody, IgG1, V domains shown) VH: EVQLVESGGGLVQPGGSLRLSCAASGFSLTKYGVHWVRQAPGKGLEWVGVKWAGGSTDYNSALMSRFTISKDNAKNSLYLQMNSLRAEDTAVYYCARDHRDAMDYWGQGTLVTVSS VL: DIQMTQSPSSLSASVGDRVTITCTASLSVSSTYLHWYQQKPGKAPKLLIYSTSNLASGVPSRFSGSGSGTDFTLTISSLQPEDFATYYCHQYHRSPLTFGGGTKVEIK", "values": [
      {"measurement": "EC50", "setting": "[10]", "result": 1.17, "unit": "nM"},
      {"measurement": "IC50", "setting": "[11]", "result": 12.3, "unit": "nM"}
    ]},
    {"binder": "hu07 heavy chain v1.5 / light chain v1.1 (antibody, IgG1, V domains shown) VH: EVQLVESGGGLVQPGGSLRLSCAASGFSLTKYGVHWVRQAPGKGLEWVGVKWAGGSTDYNSALMSRFTISKDNAKNSLYLQMNSLRAEDTAVYYCARDHRDAMDYWGQGTLVTVSS VL: DIQMTQSPSSLSASVGDRVTITCTASLSVSSTYLHWYQQKPGSSPKLLIYSTSNLASGVPSRFSGSGSGTSFTLTISSLQPEDFATYYCHQYHRSPLTFGGGTKVEIK", "values": [
      {"measurement": "EC50", "setting": "[10]", "result": 1.29, "unit": "nM"},
      {"measurement": "IC50", "setting": "[11]", "result": 19, "unit": "nM"}
    ]}
  ]
}
